For two substances, Multiubiquitin Chain Bound (%) and Multiubiquitin Chain Bound cpm results are on record in patent publication US20030235558A1.

This experiment concerns the target ^125I-labeled multiubiquitin chains. The experiment can be described thus: GST fusion on glutathione agarose beads, ^125I-labeled multiubiquitin chains, gamma-counting.

As for “GST fused p62 ubiquitin binding region mutant L394/L395 → A/A (from UniProt O08623 363-439)”, the Multiubiquitin Chain Bound (%) was determined as 17% and the Multiubiquitin Chain Bound cpm was found to be 877 cpm.

On to “GST fused p62 ubiquitin binding region (GST.p62C259) (from UniProt O08623 363-439)”, for which the Multiubiquitin Chain Bound (%) was determined as 100% and the Multiubiquitin Chain Bound cpm was 5210 cpm.
